Measured values: patent US20090005253A1, “Double Hybrid System Based on Gene Silencing by Transcriptional Interference” (AVENTIS PHARMA S.A., priority 2004, published 2009)

Biological target: fusion protein DBD-AppCt (GAL4 DBD fused to amino acids 650 to 695 of App) (Saccharomyces cerevisiae) (UniProt P04386)
Assay: cell-based or functional assay

3-AT concentration at which differences in cell growth are detected: > 15 mM
growth of strain yRB49 (UI) plated on solid medium with 3-AT: 1 mM
B1: fusion protein AD-Fe65 (GAL4 activation domain fused to amino acids 152 to 708 of Fe65) (protein)
chain: MDKAELIPEPPKKKRKVELGTAANFNQSGNIADSSLSFTFTNSSNGPNLITTQTNSQALSQPIASSNVHDNFMNNEITASKIDDGNNSKPLSPGWTDQTAYNAFGITTGMFNTTTMDDVYNYLFDDEDTPPNPKKEIEFKAAGEAEEEEEDDDDEEEEEDLSSPPGLPEPLESVEAPPRPQALTDGPREHSKSASLLFGMRNSAASDEDSSWATLSQGSPSYGSPEDTDSFWNPNAFETDSDLPAGWMRVQDTSGTYYWHIPTGTTQWEPPGRASPSQGSSPQEESQLTWTGFAHGEGFEDGEFWKDEPSDEAPMELGLKEPEEGTLTFPAQSLSPEPLPQEEEKLPPRNTNPGIKCFAVRSLGWVEMTEEELAPGRSSVAVNNCIRQLSYHKNNLHDPMSGGWGEGKDLLLQLEDETLKLVEPQSQALLHAQPIISIRVWGVGRDSGRDFAYVARDKLTQMLKCHVFRCEAPAKNIATSLHEICSKIMAERRNARCLVNGLSLDHSKLVDVPFQVEFPAPKNELVQKFQVYYLGNVPVAKPVGVDVINGALESVLSSSSREQWTPSHVSVAPATLTILHQQTEAVLGECRVRFLSFLAVGRDVHTFAFIMAAGPASFCCHMFWCEPNAASLSEAVQAACMLRYQKCLDARSQASTSCLPAPPAESVARRVGWTVRRGVQSLWGSLKPKRLGAHTP
